Target: recombinant human NPR3 extracellular domain portion (amino acids Gly27-Ser482) fused to the Fc portion of mouse IgG2a (human; mouse) (UniProt P17342)
Assay: blocking ELISA, plate-coated hNPR3-mFc, competitor biotin-hANP, 1 µg/mL control antibody

UniProt P17342, sequence (P17342 27-482 limits assumed): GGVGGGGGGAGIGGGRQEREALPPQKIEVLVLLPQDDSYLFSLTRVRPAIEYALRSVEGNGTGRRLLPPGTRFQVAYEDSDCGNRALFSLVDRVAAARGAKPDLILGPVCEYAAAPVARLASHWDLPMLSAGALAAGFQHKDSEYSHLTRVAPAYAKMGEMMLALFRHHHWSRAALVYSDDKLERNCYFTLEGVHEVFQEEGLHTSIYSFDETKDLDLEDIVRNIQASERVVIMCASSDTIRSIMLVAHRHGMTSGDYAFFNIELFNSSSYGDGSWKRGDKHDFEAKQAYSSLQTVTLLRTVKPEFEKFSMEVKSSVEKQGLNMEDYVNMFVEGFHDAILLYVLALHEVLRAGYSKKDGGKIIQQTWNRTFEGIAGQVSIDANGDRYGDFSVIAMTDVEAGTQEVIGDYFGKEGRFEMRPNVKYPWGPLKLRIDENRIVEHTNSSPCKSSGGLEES

non-binding human IgG1 isotype control antibody (blocking ELISA)
percent blockade: 32%
